The text below walks through data of paper doi:10.1101/133777 (bioRxiv, 2017).

For this assay, the target named is 3HA-3FLAG-SPAK (mouse, UniProt Q9Z1W9 1-556). Put plainly: pull-down.

B1: BioEase-FBXL5 (natural protein)
chain: MAPFPEEVDVFTAPHWRMKQLVGLYCDKLSKTNFSNNNDFRALLQSLYATFKEFKMHEQIENEYIIGLLQQRSQTIYNVHSDNKLSEMLSLFEKGLKNVKNEYEQLNYAKQLKERLEAFTRDFLPHMKEEEEVFQPMLMEYFTYEELKDIKKKVIAQHCSQKDTAELLRGLSLWNHAEERQKFFKYSVDEKSDKEAEVSEHSTGITHLPPEVMLSIFSYLNPQELCRCSQVSMKWSQLTKTGSLWKHLYPVHWARGDWYSGPATELDTEPDDEWVKNRKDESRAFHEWDEDADIDESEESAEESIAISIAQMEKRLLHGLIHNVLPYVGTSVKTLVLAYSSAVSSKMVRQILELCPNLEHLDLTQTDISDSAFDSWSWLGCCQSLRHLDLSGCEKITDVALEKISRALGILTSHQSGFLKTSTSKITSTAWKNKDITMQSTKQYACLHDLTNKGIGEEIDNEHPWTKPVSSENFTSPYVWMLDAEDLADIEDTVEWRHRNVESLCVMETASNFSCSTSGCFSKDIVGLRTSVCWQQHCASPAFAYCGHSFCCTGTALRTMSSLPESSAMCRKAARTRLPRGKDLIYFGSEKSDQETGRVLLFLSLSGCYQITDHGLRVLTLGGGLPYLEHLNLSGCLTITGAGLQDLVSACPSLNDEYFYYCDNINGPHADTASGCQNLQCGFRACCRSGE
modifications: biotin (biotinylated FBXL5, BioEase tag)
In the case of B1, the binding result is “binds”.
